Results as given in paper PMC5692578.

Target: Mcm2-7 hexamer (S. cerevisiae) (UniProt P29469)
Assay: cryo-EM structure

Substance: Mcm2-7 hexamer, P29469;P24279;P30665;P29496;P53091;P38132
- stoichiometry N: 2 hexamers
